Measured values reported in paper PMC3036652, “Functional Analysis of an Acid Adaptive DNA Adenine Methyltransferase from Helicobacter pylori 26695” (PLoS ONE, 2011).

Columns and labels:
HP0593 MTase = molecular target: T1, HP0593 MTase (Helicobacter pylori, UniProt O25315); assay: EMSA of enzyme with […]-labelled duplex […] DNA; assay type: binding; details: on ice, no divalent metal, ternary complex with cognate DNA, indirect read-out
T1 construct: gene HP_0593; full-length, 1797 bp gene in pET14b (NdeI/BamHI), N-terminal His6 tag kept, E. coli BL21(DE3) pLysS; monomer and dimer in solution, functions as dimer
T1 sequence (O25315 1-598): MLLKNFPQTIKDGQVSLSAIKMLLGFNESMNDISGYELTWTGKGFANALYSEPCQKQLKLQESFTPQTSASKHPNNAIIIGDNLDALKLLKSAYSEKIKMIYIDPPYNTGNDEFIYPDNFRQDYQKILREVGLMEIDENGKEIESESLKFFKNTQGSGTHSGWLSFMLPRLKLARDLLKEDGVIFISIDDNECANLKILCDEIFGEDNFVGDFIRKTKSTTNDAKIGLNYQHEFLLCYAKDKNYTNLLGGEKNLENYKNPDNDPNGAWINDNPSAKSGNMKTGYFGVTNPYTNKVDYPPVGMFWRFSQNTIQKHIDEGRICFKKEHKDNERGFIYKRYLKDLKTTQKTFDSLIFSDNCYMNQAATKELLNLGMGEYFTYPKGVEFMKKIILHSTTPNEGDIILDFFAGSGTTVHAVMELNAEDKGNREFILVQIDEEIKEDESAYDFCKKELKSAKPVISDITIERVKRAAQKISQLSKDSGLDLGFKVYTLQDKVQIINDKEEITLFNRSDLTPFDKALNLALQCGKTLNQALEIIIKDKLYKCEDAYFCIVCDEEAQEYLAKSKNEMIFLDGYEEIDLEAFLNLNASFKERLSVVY

[1] = molecular target: HP0593 DNA-(N6-adenine)-methyltransferase (Helicobacter pylori 26695); assay: cross-linking; 0.06% and 0.08% glutaraldehyde-treated HP0593 MTase, products analysed by MALDI-MS; data not shown
[2] = molecular target: HP0593 DNA-(N6-adenine)-methyltransferase (Helicobacter pylori 26695); assay: SEC
[3] = molecular target: HP0593 DNA-(N6-adenine)-methyltransferase (Helicobacter pylori 26695); assay: cross-linking
[4] = molecular target: HP0593 DNA-(N6-adenine)-methyltransferase (Helicobacter pylori 26695); assay: SEC; reinjection of the dimer peak of the gel filtration; data not shown
[5] = molecular target: T2, HP0593 DNA-(N6-adenine)-methyltransferase (HP0593 MTase) (Helicobacter pylori 26695, UniProt O25315 1-598); assay: SPR; 1.0 mM MnCl2; EMSA: 10 mM potassium phosphate pH 5.5, 7 mM β-mercaptoethanol, 10% glycerol, no divalent metal, 10 min on ice, 0.5-5.0 µM protein, ~100 nM DNA, gel 0.5x TBE 4°C; SPR: 10 mM HEPES pH 7.4, 100 mM NaCl, 0.05% P-20, ±1.0 mM MnCl2, 25°C, 1:1 Langmuir global fit; details: protein: recombinant; tags: N-terminal His6 (pET14b); label: 5' biotin on top strand, immobilized on SA chip; blunt
T2 sequence: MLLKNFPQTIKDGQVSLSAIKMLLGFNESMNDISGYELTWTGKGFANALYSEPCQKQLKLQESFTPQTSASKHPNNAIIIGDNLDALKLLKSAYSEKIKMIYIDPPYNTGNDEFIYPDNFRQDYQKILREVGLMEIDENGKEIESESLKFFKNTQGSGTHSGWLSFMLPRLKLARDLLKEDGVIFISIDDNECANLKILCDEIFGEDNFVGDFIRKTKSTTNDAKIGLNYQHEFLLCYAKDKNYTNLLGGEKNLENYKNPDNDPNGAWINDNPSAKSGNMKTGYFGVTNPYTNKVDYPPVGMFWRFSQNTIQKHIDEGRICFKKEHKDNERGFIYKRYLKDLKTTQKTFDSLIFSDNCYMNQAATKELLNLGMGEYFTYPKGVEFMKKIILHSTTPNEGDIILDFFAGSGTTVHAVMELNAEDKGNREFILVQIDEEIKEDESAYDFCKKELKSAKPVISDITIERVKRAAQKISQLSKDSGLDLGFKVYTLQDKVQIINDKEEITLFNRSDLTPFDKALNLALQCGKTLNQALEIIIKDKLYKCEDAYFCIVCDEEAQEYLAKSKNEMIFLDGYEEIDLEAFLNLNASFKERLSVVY

[6] = molecular target: T2, HP0593 …; assay: EMSA; no cofactor; up to 3.0 µM protein; EMSA: 10 mM potassium phosphate pH 5.5, 7 mM β-mercaptoethanol, 10% glycerol, no divalent metal, 10 min on ice, 0.5-5.0 µM protein, ~100 nM DNA, gel 0.5x TBE 4°C; SPR: 10 mM HEPES pH 7.4, 100 mM NaCl, 0.05% P-20, ±1.0 mM MnCl2, 25°C, 1:1 Langmuir global fit; details: protein: recombinant; tags: N-terminal His6 (pET14b); label: 32P; blunt

Which “EMSA of enzyme with 32P-labelled duplex 2 DNA” value (HP0593 MTase; 5 µM AdoHcy, 10 mM potassium phosphate pH 5.5) does the source give for `Nc1ncnc2c1ncn2[C@@H]1O[C@H](CSCC[C@H](N)C(=O)O)[C@@H](O)[C@H]1O` [AdoHcy] here?
Its value is “This suggested the formation of a stable ternary complex in the presence of AdoHcy”.

For `Nc1ncnc2c1ncn2[C@@H]1O[C@H](C[C@@H](N)CC[C@H](N)C(=O)O)[C@@H](O)[C@H]1O` [sinefungin], which “EMSA of enzyme with 32P-labelled duplex 2 DNA” value (HP0593 MTase; 10 µM sinefungin, pH 5.5) is on record?
The value was “which is stabilized by AdoHcy and in some extent by sinefungin”.

With “HP0593 DNA-(N6-adenine)-methyltransferase (enzyme)” as the molecule, how does the stoichiometry N [1] read?
The stoichiometry N was 2.

And the stoichiometry N [2]?
The stoichiometry N was 2.

And the stoichiometry N [3]?
Its stoichiometry N is 2.

What about the stoichiometry N [4] of the same molecule?
Its stoichiometry N is 2.

B1: duplex 18 (dsDNA)
DNA 1: GATCAATAGATGCGCAGATCATTTACATT
DNA 2: AATGTAAATGATCTGCGCATCTATTGATC
For B1, which Kd [5] is on record?
The Kd was 4.58 nM.

B2: duplex 19 (lacks GCAG) (dsDNA)
DNA 1: GATCAATAGATCCCCGGATCATTTACATT
DNA 2: AATGTAAATGATCCGGGGATCTATTGATC
Does B2 bind [6]?
Result: no binding
